Reference: patent publication US20190151446A1 (LIVERPOOL SCHOOL OF TROPICAL MEDICINE, published 2019)
Where a chain is given by its changes, count along the chain named. Names may count otherwise.

T1: human FcγRIIA (human, UniProt P12318 36-218)
T1 construct: Bought protein, construct not described
T1 sequence (looked up): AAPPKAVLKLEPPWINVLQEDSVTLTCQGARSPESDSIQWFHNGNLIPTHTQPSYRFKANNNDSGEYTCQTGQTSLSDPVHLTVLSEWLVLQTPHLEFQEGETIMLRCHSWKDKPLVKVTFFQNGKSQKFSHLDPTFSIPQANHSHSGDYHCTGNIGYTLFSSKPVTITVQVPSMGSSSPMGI

T2: human FcγRIIB (human, UniProt P31994 46-217)
T2 construct: Bought protein, construct not described
T2 sequence (looked up): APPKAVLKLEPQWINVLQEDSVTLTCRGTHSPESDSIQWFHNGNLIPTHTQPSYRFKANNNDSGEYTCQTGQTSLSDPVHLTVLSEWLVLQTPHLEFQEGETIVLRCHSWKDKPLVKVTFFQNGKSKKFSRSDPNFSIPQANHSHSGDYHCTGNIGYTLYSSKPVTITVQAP

T3: soluble recombinant tetrameric human DC-SIGN (human, UniProt Q9NNX6 66-404, limits assumed)
T3 construct: also called Dendritic Cell-Specific Intercellular adhesion molecule-3-Grabbing Non-integrin
T3 sequence (looked up): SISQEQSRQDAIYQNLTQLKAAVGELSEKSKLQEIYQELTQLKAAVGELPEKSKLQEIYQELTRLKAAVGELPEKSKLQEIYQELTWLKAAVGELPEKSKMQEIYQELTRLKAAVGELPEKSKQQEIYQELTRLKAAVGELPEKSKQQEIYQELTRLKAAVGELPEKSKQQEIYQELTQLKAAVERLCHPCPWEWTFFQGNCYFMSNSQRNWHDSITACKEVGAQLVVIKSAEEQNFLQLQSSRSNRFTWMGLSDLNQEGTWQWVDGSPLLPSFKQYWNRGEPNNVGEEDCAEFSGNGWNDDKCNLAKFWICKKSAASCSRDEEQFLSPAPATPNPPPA

B1: human Siglec-1 (receptor, UniProt Q9BZZ2 20-1641, looked up)
chain: SWGVSSPQDVQGVKGSCLLIPCIFSFPADVEVPDGITAIWYYDYSGQRQVVSHSADPKLVEARFRGRTEFMGNPEHRVCNLLLKDLQPEDSGSYNFRFEISEVNRWSDVKGTLVTVTEEPRVPTIASPVELLEGTEVDFNCSTPYVCLQEQVRLQWQGQDPARSVTFNSQKFEPTGVGHLETLHMAMSWQDHGRILRCQLSVANHRAQSEIHLQVKYAPKGVKILLSPSGRNILPGELVTLTCQVNSSYPAVSSIKWLKDGVRLQTKTGVLHLPQAAWSDAGVYTCQAENGVGSLVSPPISLHIFMAEVQVSPAGPILENQTVTLVCNTPNEAPSDLRYSWYKNHVLLEDAHSHTLRLHLATRADTGFYFCEVQNVHGSERSGPVSVVVNHPPLTPVLTAFLETQAGLVGILHCSVVSEPLATLVLSHGGHILASTSGDSDHSPRFSGTSGPNSLRLEIRDLEETDSGEYKCSATNSLGNATSTLDFHANAARLLISPAAEVVEGQAVTLSCRSGLSPTPDARFSWYLNGALLHEGPGSSLLLPAASSTDAGSYHCRARDGHSASGPSSPAVLTVLYPPRQPTFTTRLDLDAAGAGAGRRGLLLCRVDSDPPARLQLLHKDRVVATSLPSGGGCSTCGGCSPRMKVTKAPNLLRVEIHNPLLEEEGLYLCEASNALGNASTSATFNGQATVLAIAPSHTLQEGTEANLTCNVSREAAGSPANFSWFRNGVLWAQGPLETVTLLPVARTDAALYACRILTEAGAQLSTPVLLSVLYPPDRPKLSALLDMGQGHMALFICTVDSRPLALLALFHGEHLLATSLGPQVPSHGRFQAKAEANSLKLEVRELGLGDSGSYRCEATNVLGSSNTSLFFQVRGAWVQVSPSPELQEGQAVVLSCQVHTGVPEGTSYRWYRDGQPLQESTSATLRFAAITLTQAGAYHCQAQAPGSATTSLAAPISLHVSYAPRHVTLTTLMDTGPGRLGLLLCRVDSDPPAQLRLLHGDRLVASTLQGVGGPEGSSPRLHVAVAPNTLRLEIHGAMLEDEGVYICEASNTLGQASASADFDAQAVNVQVWPGATVREGQLVNLTCLVWTTHPAQLTYTWYQDGQQRLDAHSIPLPNVTVRDATSYRCGVGPPGRAPRLSRPITLDVLYAPRNLRLTYLLESHGGQLALVLCTVDSRPPAQLALSHAGRLLASSTAASVPNTLRLELRGPQPRDEGFYSCSARSPLGQANTSLELRLEGVRVILAPEAAVPEGAPITVTCADPAAHAPTLYTWYHNGRWLQEGPAASLSFLVATRAHAGAYSCQAQDAQGTRSSRPAALQVLYAPQDAVLSSFRDSRARSMAVIQCTVDSEPPAELALSHDGKVLATSSGVHSLASGTGHVQVARNALRLQVQDVPAGDDTYVCTAQNLLGSISTIGRLQVEGARVVAEPGLDVPEGAALNLSCRLLGGPGPVGNSTFAWFWNDRRLHAEPVPTLAFTHVARAQAGMYHCLAELPTGAAASAPVMLRVLYPPKTPTMMVFVEPEGGLRGILDCRVDSEPLASLTLHLGSRLVASSQPQGAPAEPHIHVLASPNALRVDIEALRPSDQGEYICSASNVLGSASTSTYFGVRALHRLHQFQQ
notes: Construct not described; also called sialoadhesin; CD169
B2: D221N mutant of hexa-Fc (Fc fusion)
chain: NKTHTCPPCPAPELLGGPSVFLFPPKPKDTLMISRTPEVTCVVVDVSHEDPEVKFNWYVDGVEVHNAKTKPREEQYNSTYRVVSVLTVCLQDWLNGKEYKCKVSNKALPAPIEKTISKAKGQPREPQVYTLPPSREEMTKNQVSLTCLVKGFYPSDIAVEWESNGQPENNYKTTPPVLDSDGSFFLYSKLTVDKSRWQQGNVFSCSVMHEALHNHYTQKSLSLSPGKLVLGPPLYNVSLVMSDTAGTCY
modifications: N-linked glycans at Asn221 (N1), Asn297 (N77) and Asn563 (N236)
notes: Made on the hexa-Fc template in CHO-K1 cells; multimeric, hyper-sialylated
B3: N297A mutant of hexa-Fc (Fc fusion)
chain: B2 chain with N1D, N77A
modifications: N-linked glycan at Asn563 (N236)
notes: Made on the hexa-Fc template in CHO-K1 cells; still multimeric (pentamers and hexamers)
B4: N297A/N563A mutant of hexa-Fc (Fc fusion)
chain: B2 chain with N1D, N77A, N236A
modifications: no glycans attached
notes: Made on the hexa-Fc template in CHO-K1 cells; Results-1 says it cannot form oligomers, Results-2 says it forms higher order multimers; also called glycan deficient mutant; N297A/N563A double-knockout
B5: D221N/N297A/N563A mutant of hexa-Fc (Fc fusion)
chain: B2 chain with N77A, N236A
modifications: N-linked glycan at Asn221 (N1)
notes: Made on the hexa-Fc template in CHO-K1 cells; higher order multimers; also called D221/N297A/N563A
B6: D221N/N297A mutant of hexa-Fc (Fc fusion)
chain: B2 chain with N77A
modifications: N-linked glycans at Asn221 (N1) and Asn563 (N236)
notes: Made on the hexa-Fc template in CHO-K1 cells; multimeric
B7: D221N/N563A mutant of hexa-Fc (Fc fusion)
chain: B2 chain with N236A
modifications: N-linked glycans at Asn221 (N1) and Asn297 (N77)
notes: Made on the hexa-Fc template in CHO-K1 cells; runs as higher order multimers approximating dodecamers; also called D221/N563A; D221N/N563A dodecamer

Tests used:
[1] = molecular target: T4, monomeric IgG1-Fc control (human, UniProt P01857-1 104-330 = IgG part, limits assumed, N-linked glycan at Asn297); test: ELISA (FIG. 12 B)
T4 construct: domain: Fc; also called wildtype IgG-Fc; wildtype IgG1-Fc

human FcγRI = molecular target: T5, human FcγRI (human, UniProt P12314 16-288); test: ELISA, receptor coated on plate
T5 construct: Bought protein, construct not described
T5 sequence (P12314 16-288 limits assumed): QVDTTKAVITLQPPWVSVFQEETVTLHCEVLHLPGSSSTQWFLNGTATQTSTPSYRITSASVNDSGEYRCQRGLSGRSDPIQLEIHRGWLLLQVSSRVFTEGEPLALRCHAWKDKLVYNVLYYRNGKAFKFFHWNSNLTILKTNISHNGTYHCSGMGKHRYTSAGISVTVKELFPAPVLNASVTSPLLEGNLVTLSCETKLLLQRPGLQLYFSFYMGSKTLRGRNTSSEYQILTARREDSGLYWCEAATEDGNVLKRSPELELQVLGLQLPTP
Procedure: (§1) ELISAs were used to investigate the binding of oligomeric Fc mutants to FcγRI, FcγRIIA, FcγRIIB, FcγRIIIA and FcγRIIIB (all from R&D laboratories). Receptors were coated down to ELISA plates (Nunc) in carbonate buffer pH9 (Sigma-Aldrich) at 2 μg/ml overnight at 4° C. Plates were then blocked in PBS/0.1% Tween-20 (PBST) containing 4% skimmed milk (Tesco). Plates were then washed three times in PBS/0.1% Tween-20 (PBST) before adding Fc mutants at the indicated concentrations in PBST overnight at 4° C. Plates were washed as above and incubated for 2 h with 1:500 dilution of an alkaline phosphatase conjugated goat Fab′₂ anti-human IgG (Jackson Laboratories). Plates were washed as above and developed for 15 min with 100 μl of a Sigmafast p-nitrophenyl phosphate solution (Sigma-Aldrich). Plates were read at 405 nm and data plotted with Graphpad prism.

human FcγRIIIA [2] = molecular target: T6, human FcγRIIIA (human, UniProt P08637 17-208); test: ELISA, receptor coated on plate
T6 construct: Bought protein, construct not described; also called FcgRIIIA
T6 sequence (P08637 17-208 limits assumed): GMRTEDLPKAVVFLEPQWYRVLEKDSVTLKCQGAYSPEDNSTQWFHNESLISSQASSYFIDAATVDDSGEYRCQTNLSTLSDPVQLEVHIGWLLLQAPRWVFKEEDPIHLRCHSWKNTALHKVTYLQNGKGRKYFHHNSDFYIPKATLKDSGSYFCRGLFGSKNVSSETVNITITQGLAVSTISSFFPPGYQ
Procedure: as §1

human FcγRIIA = molecular target: T1, human FcγRIIA; test: ELISA, receptor coated on plate
Procedure: as §1

human FcγRIIIB = molecular target: T7, human FcγRIIIB (human, UniProt O75015 17-200); test: ELISA, receptor coated on plate
T7 construct: Bought protein, construct not described
T7 sequence (O75015 17-200 limits assumed): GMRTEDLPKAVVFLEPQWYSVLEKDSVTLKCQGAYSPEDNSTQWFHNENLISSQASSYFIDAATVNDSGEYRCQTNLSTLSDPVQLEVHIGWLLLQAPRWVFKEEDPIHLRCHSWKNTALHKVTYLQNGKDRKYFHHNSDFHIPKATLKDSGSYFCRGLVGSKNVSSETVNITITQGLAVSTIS
Procedure: as §1

human FcγRIIB = molecular target: T2, human FcγRIIB; test: ELISA, receptor coated on plate
Procedure: as §1

human Siglec-1 = molecular target: B1; test: ELISA (FIG. 12 B)
[3] = molecular target: T3, soluble recombinant tetrameric human …; test: ELISA, soluble tetrameric human DC-SIGN (FIG. 12 A)
human FcγRIIIA [4] = molecular target: T6, human FcγRIIIA; test: ELISA, receptor coated on plate (FIG. 4)
Procedure: as §1

Binder	binding result [1]	binding result (human FcγRI)	binding result (human FcγRIIIA [2])	binding result (human FcγRIIA)	binding result (human FcγRIIIB)	binding result (human FcγRIIB)	binding result (human Siglec-1)	binding result [3]	binding result (human FcγRIIIA [4])
B1	no binding	–	–	–	–	–	–	–	–
B2	–	no binding	no binding	no binding	no binding	no binding	–	–	–
B3	–	no binding	no binding	no binding	no binding	no binding	–	–	–
B4	–	–	–	–	–	–	no binding	–	–
B5	–	–	–	–	–	–	–	no binding	–
B6	–	no binding	no binding	no binding	no binding	no binding	–	no binding	–
B7	–	binds	–	binds	binds	binds	–	–	binds
